Laboratory results published in the RNAGym collection of RNA variant scans (doi:10.1073/pnas.2313332121).

B1: TPR t1 (parent)
chain: GACCAAUCUGCCCUCAGAGCUCGAGAACAUCUUCGGAUGCAGAGGAGGCAGGCUUCGGUGGCGCGAUAGCGCCAACGUCCUCAACCUCCAAUGCAUCCCACCACAUGAUGAUGCCUGAAGAGCCUUGGUUUUUUG

Variants of: B1
Assay: polymerase ribozyme fitness, log enrichment relative to wild type (log ratio); higher = more active; in vitro selection for triplet polymerase activity
Procedure, shortened: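 Mutant libraries of both subunits of a heterodimeric triplet polymerase ribozyme were PCR-built, transcribed, and selected once in triplicate, with frozen incubation at −7 °C and capture of gel-excised extended constructs on streptavidin beads before RT-PCR. Illumina sequencing of input and output libraries was filtered to genotypes with ≥10 input reads and ≥1 read per output. Fitness is the logarithm of genotype enrichment over wild-type enrichment, using inverse-variance-weighted replicate averages. The logarithm is base 2.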

First: GACCAAUCUGCCCUCAGAGCUCGAGAACAUCUUCGGAUGCAGAGGAGGCAGGCUUCGGUGGCGCGAUAGCGGCAACGUCCUCAACCUCCAAUGCAUCCCACCACAUGAUGAUGCCUGAAGAGCAUUGGUUUUUUG [C72G C124A]
Second: GACCAAUCUGCCCUCAGAGCUCGAGAACAUCUUCGGAUGCAGAGGAGGCAGGCUUCGGUGGCGCGAUAGCGGCAACGUCCUCAACCUCCAAUGCAUCCCACCACAUGAUGAUGCCUGAAGAGCGUUGGUUUUUUG [C72G C124G]
The “polymerase ribozyme fitness (log ratio)” value of the first is lower: 1.03 for the first, 1.51 for the second.

Going from GACCAAUCUGCCCUCAGAGCUCGAGAACAUCUUCGGAUGCAGAGGAGGCAGGCUUCGGUGGCGCGAUAGCGGCAACGUCCUCAACCUCCAAGGCAUCCCACCACAUGAUGAUGCCUGAAGAGCCUUGGUUUUUUG [C72G U92G] to GACCAAUCUGCCCUCAGAGCUCGAGAACAUCUUCGGAUGCAGAGGAGGCAGGCUUCGGUGGCGCGAUAGCGGCAACGUCCUCAACCUCCAAAGCAUCCCACCACAUGAUGAUGCCUGAAGAGCCUUGGUUUUUUG [C72G U92A], the “polymerase ribozyme fitness (log ratio)” value falls from -3.48 to -3.94.

Compared with GACCAAUCUGCCCUCAGAGCUCGAGAACAUCUUCGGAUGCAGAGGAGGCAGGCUUCGGUGGCGCGAUAGCGUCAACGUCCUCUACCUCCAAUGCAUCCCACCACAUGAUGAUGCCUGAAGAGCCUUGGUUUUUUG [C72U A83U], GACCAAUCUGCCCUCAGAGCUCGAGAACAUCUUCGGAUGCAGAGGAGGCAGGCUUCGGUGGCGCGAUAGCGGCAACGUCCUCAACCUCCAAUGCAUCCCACCACAUGAAGAUGCCUGAAGAGACUUGGUUUUUUG [C72G U109A C123A] is lower in “polymerase ribozyme fitness (log ratio)” value: -1.1 for the first, -5.46 for the second.

First: GACCAAUCUGCCCUCAGAGCUCGAGAACAUCUUCGGAUGCAGAGGAGGCAGGCUUCGGUGGCGCGAUAGCGGCAACGUCCUCAACCUCCAAUGCAUCCCUCCACAUGAUGAUGCCUGAAGAGCCUUGGUUUUUUG [C72G A100U]
Second: GACCAAUCUGCCCUCAGAGCUCGAGAACAUCUUCGGAUGCAGAGGAGGCAGGCUUCGGUGGCGCGAUAGCGGCAACGUCCACAACCUCCAAUGCAUCCCACCACAUGAUGAUGCCUGAAGAGCCUUGGUAUUUUG [C72G U81A U130A]
The “polymerase ribozyme fitness (log ratio)” value of the first is higher: -0.592 for the first, -1.44 for the second.

First: GACCAAUCUGCCCUCAGAGCUCGAGAACAUCUUCGGAUGCAGAGGAGGCAGGCUUCGGUGGCGCGAUAGCGGCAACGUCCUCGACCUCCAAUGCAUCCCACCACAUGAUGAUGCAUGAAGAGCCUUGGUUUUUUG [C72G A83G C115A]
Second: GACCAAUCUGCCCUCAGAGCUCGAGAACAUCUUCGGAUGCAGAGGAGGCAGGCUUCGGUGGCGCGAUAGCGGCAACGUGCUCAACCUCCAAUGCAUCCCACCACAUGAUGAUGCCUGAAGAGCCUUGGUUUUAUG [C72G C79G U133A]
The “polymerase ribozyme fitness (log ratio)” value of the first is lower: -4.27 for the first, -1.07 for the second.

Compared with GACCAAUCUGCCCUCAGAGCUCGAGAACAUCUUCGGAUGCAGAGGAGGCAGGCUUCGGUGGCGCGAUAGCGACAACGUCCUCAACCUCCAAUGCAUCCCACCACAUGAUGACGCCUGAAGAGCCUUCGUUUUUUG [C72A U112C G127C], GACCAAUCUGCCCUCAGAGCUCGAGAACAUCUUCGGAUGCAGAGGAGGCAGGCUUCGGUGGCGCGAUAGCGGCAACGUCCUCAACCUCCAAUGCAUCCCACCACAUGAUGAUGCCUGAAGAGGCUUGGUUUUUUG [C72G C123G] is higher in “polymerase ribozyme fitness (log ratio)” value: 0.93 for the first, 1.26 for the second.

First: GACCAAUCUGCCCUCAGAGCUCGAGAACAUCUUCGGAUGCAGAGGAGGCAGGCUUCGGUGGCGCGAUAGCGGCAACGUCCUCAACCUCCAAUCCAUCCCACCACAUGAUGAUGCCUGAAGAGCCUUGGUUUUUUG [C72G G93C]
Second: GACCAAUCUGCCCUCAGAGCUCGAGAACAUCUUCGGAUGCAGAGGAGGCAGGCUUCGGUGGCGCGAUAGCGACAACGUCCUCAACCUCCAAUGCAUCCCACCACAUGACGAUGCCUGAAGAGCCUUGGUUUUUUG [C72A U109C]
The “polymerase ribozyme fitness (log ratio)” value of the first is higher: -1.92 for the first, -2.36 for the second.

Compared with GACCAAUCUGCCCUCAGAGCUCGAGAACAUCUUCGGAUGCAGAGGAGGCAGGCUUCGGUGGCGCGAUAGCGGCAACGUCCUCAACCUCCAAUGCAUCCCACCACAUGAUGAUGCCUGAAGAGCCUUGGUGUUUUG [C72G U130G], GACCAAUCUGCCCUCAGAGCUCGAGAACAUCUUCGGAUGCAGAGGAGGCAGGCUUCGGUGGCGCGAUAGCGACAACGUCCUCAACCUCCAAUGCAUCCCACCACAUGAUGACGCCUGAAGAGCCUUGGUUUUUUG [C72A U112C] is higher in “polymerase ribozyme fitness (log ratio)” value: -1.24 for the first, 1.48 for the second.

First: GACCAAUCUGCCCUCAGAGCUCGAGAACAUCUUCGGAUGCAGAGGAGGCAGGCUUCGGUGGCGCGAUAGCGGUAACGUCCUCAACCUCCAAUGCAUCCCACCACAUGAUGAUGCCUGAAGAGCCUUGUUUUUUUG [C72G C73U G128U]
Second: GACCAAUCUGCCCUCAGAGCUCGAGAACAUCUUCGGAUGCAGAGGAGGCAGGCUUCGGUGGCGCGAUAGCGACAACGUCCUCAACCUCCAAUGCAACCCACCACAUGAUGAUGCCUGAAGAGCCUUGGUUUUUUG [C72A U96A]
The “polymerase ribozyme fitness (log ratio)” value of the first is lower: -3.92 for the first, -1.74 for the second.

Going from GACCAAUCUGCCCUCAGAGCUCGAGAACAUCUUCGGAUGCAGAGGAGGCAGGCUUCGGUGGCGCGAUAGCGGCAACGUCCUCAACCUCCAAUGCAUCCCACCACAUGAUGAUGCCUGAAGAGCCUUGCUUUUUUG [C72G G128C] to GACCAAUCUGCCCUCAGAGCUCGAGAACAUCUUCGGAUGCAGAGGAGGCAGGCUUCGGUGGCGCGAUAGCGGCAACGUCCUCAACCUCCAAUGGAUCCCACCACAUGAUGAUACCUGAAGAUCCUUGGUUUUUUG [C72G C94G G113A G122U], the “polymerase ribozyme fitness (log ratio)” value falls from -2.25 to -3.41.

In the case of GACCAAUCUGCCCUCAGAGCUCGAGAACAUCUUCGGAUGCAGAGGAGGCAGGCUUCGGUGGCGCGAUAGCGGCAACGUCCUCAACCUCCAAUGCAUCCCACCACAUGGUGAUGCCUGAAAAGCGUUGGUUGUUUG [C72G A108G G120A C124G U131G], the “polymerase ribozyme fitness (log ratio)” value is reported as -1.26.
